Laboratory results reported in patent US20090263894A1 (AbbVie / Abbott, published 2009).

T1: human NGAL (C87S) produced in E. coli, NGAL(+)mut8 (human, UniProt P80188 21-198, 15N/2H or 13C/15N isotope label (NMR, Example 8); BHQ-10S quencher label (KD titrations, Example 9))
T1 construct: also called BHQ-NGAL; isotope-labeled human NGAL
T1 chain: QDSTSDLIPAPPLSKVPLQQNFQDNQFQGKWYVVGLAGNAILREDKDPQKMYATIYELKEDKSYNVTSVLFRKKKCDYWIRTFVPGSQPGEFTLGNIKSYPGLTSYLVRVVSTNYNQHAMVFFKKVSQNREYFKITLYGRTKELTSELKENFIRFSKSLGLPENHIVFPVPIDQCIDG

T2: Mutant C87S NGAL rAg (CHO cell clone #734) (human, UniProt P80188 21-198, glycosylated (CHO))
T2 construct: also called NGAL mutant C87S antigen; mutant C87S NGAL rAg CHO 734
T2 chain: T1 chain

B1: anti-NGAL monoclonal antibody 1-2322-455 (antibody, V domains shown)
VH: EVQLVESGGGLVQPGGSLKLSCAASGFTFNNYYMSWVRQTPERRLEWVAYISSSGGSTYYSDSVRGRFTISRDTARNTLYLQMTSLKSEDTAMYYCARHFGDYSYFDYWGQGTTLTVSS
VL: DIQMTQSPASLSASVGETVTITCRASENFYSYLAWYQQKQGKSPQLLVYNAKTLAEGVPSRFSGSGSGTQFSLKINSLQPEDFGTYYCQHHYDIPLTFGAGTKLELKR
B2: anti-NGAL monoclonal antibody 1-903-430 (antibody, V domains shown)
VH: KIQLVQSGPELKKPGETVKISCKASGYTFTNYGMNWVKQAPGKGLKWMGWININTGEPTYAEEFKGRFAFSLETSATTAFLQINNLKNEDTATYLCARDSYSGGFDYWGQGTIVTVSS
VL: DIVMTQSPSSLSVSAGEKVTLSCKSSQSLLISGDQKNYLAWYQQKPGQPPKLLIYGASTRDSGVPDRFTGSGSGADFTLTISSVQAEDLAVYYCQNDHSFPPTFGAGTKLELKR

Tests used:
[1] = biological target: T1, human NGAL (C87S) produced in E. coli, …; assay: DC-FCCS sandwich formation in solution; second antibody mAb 2322
Experimental: (§1) Samples were placed in a 96-microwell optical bottom plate (Nalge Nunc International, Rochester, N.Y.). The excitation wavelength was set at 810 nm, 3 mW on the sample. Sampling rate was set at 200 KHz and 10 million points were collected for each measurement. Each sample was measured twice. Experiments were performed on each sample after one-hour incubation.
(§2) Labeled antibodies were mixed at equal concentration (40 μL of 10 nM mAbs) and ligand (15 nM NGAL) was added to the solution. Cross-correlation curves before and after adding NGAL were calculated from the data sets acquired in each channel and the data were normalized.
(§3) For illustration purposes, a relative number was assigned to each antibody pair, which, in fact, is the ratio of Gx(0) values before and after the addition of NGAL to the antibodies (Table 13). All ratio values were corrected for the background. A value of “1” indicates no sandwich formation, values between 1.1 and 2.5 indicate a poor sandwich formation, and all values above 2.6 indicate productive antibody pairing.

[2] = biological target: T3, wild-type NGAL antigen displayed on yeast (AGA2 fusion) (human, UniProt P80188 21-198); assay: flow cytometry, mAb titrated on yeast displaying NGAL
T3 construct: also called WT
Experimental: The side chain of each of the NGAL rAg residues identified from the epitope selections was altered by site-directed mutagenesis to alanine to confirm the functional epitope (direct contact residues) of each NGAL mAb subclone.
The change in Gibbs free binding energy (ΔΔG_Ala-WT) was determined to assess the energetic impact of each alanine substitution for mAb binding. The change in Gibbs free binding energy upon alanine substitution was calculated using the following equation [2],
For these experiments, observed fluorescence (F) was used to solve for KD using equation [1]. The KD derived from equation [1] one was then used in equation [2] to derive the change in Gibbs free binding energy upon alanine substitution. The KD is read from the abscissa of each of the curves at the inflection point.

[3] = biological target: T1, human NGAL (C87S) produced in E. coli, …; assay: fluorescence quenching titration in solution: ALEXA 488-labelled mAb at 0.05 nM, BHQ-labelled NGAL varied, fraction bound against free BHQ-NGAL
Experimental: (§4) The equilibrium dissociation constants (KD) of NGAL and six anti-NGAL antibodies were measured in direct binding experiments. […] After 30 minutes incubation, all samples were measured on an SLM 8100 photon counting spectrofluorimeter. Samples were excited at 480 nm, and the emission was collected through a 530 nm (30 nm bandwidth) interference filter (Chroma Technology Corp., Rockingham, Vt.). All binding measurements were performed in 10 mM HEPES buffer, pH 7.4, containing 0.15 M NaCl, 3 mM EDTA, and 0.005% surfactant P20.
(§5) where Ligandₜₒₜₐₗ and ABSₜₒₜₐₗ are the BHQ-NGAL concentration and total antibody binding sites, respectively, and Fbound is the fraction of bound antibody sites. The binding data were fitted with a simple binding model to obtain the equilibrium dissociation constant (KD) according to equation [4]: […]

[4] = biological target: T1, human NGAL (C87S) produced in E. coli, …; assay: fluorescence quenching titration: ALEXA 488-mAb with BHQ-NGAL in solution
Experimental: as §4, §5

[5] = biological target: T2, Mutant C87S NGAL rAg (CHO cell clone …); assay: KinExA, IgG in solution
Experimental: (§6) The amount of free binding sites was determined by injecting the antibody/human NGAL reaction mixture over human NGAL immobilized on solid-phase Polymethyl-methacrylate (PMMA) beads. The free anti-NGAL antibody bound to the human NGAL coated beads were subsequently detected using the fluorescent CY5-conjugated goat anti-mouse polyclonal antibody (GAM-Cy5). The degree of GAM-Cy5 bound was proportional to the amount of anti-NGAL IgG bound to the human NGAL-coated beads. The KD was determined by analyzing the amount of free binding sites versus the amount of antigen present in the reaction sample using software provided by the manufacturer (Sapidyne Instruments, Boise, Id.). Experiments were performed in a PBS, pH 7.4, and 1% BSA reaction diluent.

[6] = biological target: T4, Wild-type NGAL rAg (CHO clone #662) (human, UniProt P80188 21-198, glycosylated (CHO)); assay: KinExA, IgG in solution
T4 construct: also called NGAL wild-type antigen; wild-type NGAL rAg CHO 662
Experimental: as §6

[7] = biological target: T1, human NGAL (C87S) produced in E. coli, …; assay: DC-FCCS sandwich formation in solution; second antibody mAb 903
Experimental: as §1, §2, §3

ratio of Gx(0) before and after adding NGAL [1] | Kd [2] [nM] | ΔKD (KD against KD of WT) [2] [fold] | ΔΔG Ala-WT [2] [kcal/mol] | EC50 (read off the curve) [3] [nM] | Kd [4] [nM] | Kd [5] [nM] | Kd [6] [nM] | ratio of Gx(0) before and after adding NGAL [7] | Binder
0.7 | 0.0081 | 1 | 0 | ~0.06 | 0.06 | 0.023 | 0.024 | 3.5 | B1
3.7 | 0.204 | 1 | 0 | ~1 | 1.2 | 1.1 | 0.32 | 1 | B2
